Measured values: the DeepSol protein solubility set

test: soluble on expression in E. coli; label from the status in PepcDB or PDB records

Sequence	soluble on expression in E. coli
MGSDKIHHHHHHMSDKTDSSQGKSEPESSENNNDKTSVDNSVKSPLTIAISKNTKILALFAIACTLAVSLVSELTKDRIKVQEQQQLLRTLHSIIEPSRYDNDIANDCIMMSAPELGSNKVKTAYIARKAGQVVAVAITSTAPQGYNGNIDFIMAINNDGSVSGVRVLKHQETPGLGDKIEIRKSDWIKSFTGKRILSEDDSRWAVTKDNGMFDQFTGATITPRAVVKGVKSTLNYFNQHKGSLIPRPNACGEALSTTKSISPISEAANEQ	not soluble
MSLKRIRPLDPDVVNKIAAGEIIVAPMHALKELIENAVDAGSTSIEVLVKDGGMKLLQITDNGHGIDRDDLPILCERFTTSKLKQFEDLSSIGTYGFRGEALASISHIAHLTVTTKTAGSSCAWRAHYSDGKLVPPKPGQSAEPKATAGRGGTQITVEDLFYNVPTRRRAFRSASEEYAKILDVVGRYAVHCSGVAFSCRKHGESGAGISTPAAANTTDRIRQIHGSAVANELVEFQVEDSKLGFRSSGLVTNANYHVKRTVIMLFINHRSVESTAIKRAVEQTYSSFLPKGGHPFVYIDLEIEPHRVDVNVHPTKREVNFLNEDDIIESICSEIRSKLAQEGHHHHHH	soluble
SLAAGVLPQNEQPYSTLVNNSECVANMKGNLERPTPKYTKVGERLRHVIPGHMACSMACGGRACKYENPARWSEQEQAIKGVYSSWVTDNILAMARPSSELLEKYHIIDQFLSHGIKTIINLQRPGEHASCGNPLEQESGFTYLPEAFMEAGIYFYNFGWKDYGVASLTTILDMVKVMTFALQEGKVAIHCHAGLGRTGVLIACYLVFATRMTADQAIIFVRAKRPNSIQTRGQLLCVREFTQFLTPLRNIFSCCDPKAHAVTLPQYLIRQRHLLHGYEARLLKHVPKIIHLVCKLLLDLAE	soluble
MAHERAGQLAQPQDLIDIAEVVTAYYTRTPDADNPDQQVAFGTSGHRGSSLDTAFNENHILAITQAIVEYRAQHHIGGPIFIGRDTHALSEPAMISALEVLLAHGIEVLVDDRGRYTPTPAVSHAILAYNAQRSDSSQYSDGIVITPSHNPPRDGGFKYNPPNGGPADTDATDWIADRANTLLREGLVSVKRTSVTGVLDPRAHRHNYMENYIADLPNVVDIDAIRNSGLAIGADPMGGASVDYWGAIAEKHSLNLTVVNPLVDATWRFMTLDTDGKIRMDCSSPDSMASLVHNRTKYDIATGNDADADRHGIVTPDAGLMNPNHYLAVAIDYLFSHRPQWNSSTAVGKTLVSSSMIDRVVADLGRKLVEVPVGFKWFVPGLVDGSVGFGGEESAGASFLRHNGTVWSTDKDGIILDLLASEITAVTGKTPSQRYEELAARFGSPAYARTDAPATREQKAVLKKLSPEQVTATELAGEAITAKLTTAPGNGAAIGGLKVTTENAWFAARPSGTEDKYKIYAESFLGADHLAMVQREAQNLVSDVL	not soluble
MQLEELINQHYSKLNDNDFHILKYILNHKHTCYHLGIDALAKACSVSRSSILRLAQKLGFSGYSEFRVFLKWEDQPEEGESMSFEKLLDDIEANLKFLRTKDMTDMCQLIDAADRIFVYGSGNAQKICARDLQRMFIPRHRYLILIEDTNEFNLMRDDFKVNDLFIIISLSGETPELIPQARMLSAKGIPFISITNLKNNVLAQLTPHNLYATSKPVTLSDRTEIVAFAPFFLVGEALFRAYVDYKEAEKNDNEMAGDPLEHHHHHH	soluble
GFKVIMVTDVGGLGDKSFNDGTWAGIKQAAEELGIEAKVIQSYEQSDYIPNLSKAAEEADLVFAVGFMMTNDLFKVAKQYPDTYFVGIDITPPEGQILPNVLTFTFKEQEAAFLVGYVAAAMTKTGMVGFVGGIPIPPVERFRYGYEAGIKTYSVLHKKNVKILRGYTQDFEDPKKGKDLAMSQFAEGADIVFHASGACGNGVIEAAREKFSALAGSDKLVDLIDYYTTNGKGFFAIGVDMDQDYMAPGAVLTSAMKRVD	soluble
MICTLLVPVLGSFELVGQSIKDALAEYTLTDIMNNNQFAGIEFGEAEDGFPAFRFLQTADVKSPYRMLLPEKLYEFAILITFRQSSLKGGYLFSVVNPLDTVVQLGVHLSPVVKNSYNVSLVYTQADQNIGRKLASFGVAHVPDKWNSIALQVLSDKVSFYYDCELRNTTLVTREPIELVFDSASTLYIGQAGSIIGGKFEVSSGGGQFDYAFDLQSIVGELEHHHHHH	not soluble
MAATCSWKTCEETEQNTFIVKFSNGNVKNAEELDFTVFKHSNASNPRKKNRRIVVADSDRLPYVGSNFGSGSLQSNNMCKYFVGVLDKQTMQMKVHSAQLFNMLPVIPGEATEAESENQPSTFRDKVDALIEAFGTNKQKRALSSRRLNAVGNETLHQAVAQAASNIIDQKGVEALRNEVIETEAQSDAALFLPPCNANADKLEDVYPFDQLLTPNEFESLKEVGAKYATLSSEDLQKMRDNHCPQTVLKHLETLSKDEADRDRQCRCAWYLSFVIRASLQKRISFKFGSDDGCPRIIINKVLKNFTVESFHNGSLRNTVSMSMRMKMASYCLALLLHMGGQTANLTLLHRDMSISENKMLEVAKAMGLTLSRQNALGKEGGLIEDEHRMVSLVLPLVHYDRRTERKKRKRMN	soluble
MEDLRRYICDNTQKNIVMLVGRKVSDISKIARSYGNACMLRSFQGFRIVKSIYYYEDEVKISADGIVLCKDSLDELLRTVEQNNHVEIRNAVATFYDEMSSMGMNGESMNLNINYLLFQFIHLASEQDDNVNQQEILRLISESSFKTGIERGSRAHMTRFCCEYGDYLSQLRKNVSRGVIGMVEKEVRDNYATNITLKSLSEKYYVNSAYLGQLFRKKYGQSFKDYLNNYRMERAAELLLRTDKKIIQIAEEVGYHDMDYFVNRFIQVKGCTPARFRRQMQSGE	not soluble
MDQNPNYNFGYGQAYGSGTDHTSDSTNNYNWASQWSQPESAASLATHTFPQYVSQQQQQQQQQAQQQAQNTYAAMNPISTFMQQQQRAQTFPQKKYGQQGGAPKPSAIRNNNFGAFGGGHALSQEWVQPMSQNQMGGPQGNRFFNNQKGGPFNQNKPNWRQNKPKGPAAPKKFDSTGKSPAMLLHELFKDVSEEYTEVEGVPKKYCCTLKVNGRTFQMESVNKKAAKQKCSELVVRDLRPDVHVTPFEEGVAAKAAAPVKKEIDAASGNGQNNKRNLLQADAISNQPTPKKVSAVKKAKLQLTPVESALSLLDLMQKIIAESAEKYSPVFEASEVPKDPEIPEVEVKKEEVDTNGENVANEKKSGWRKNETMHNVTLKFVEQNKQYTKMGPSRGVLKDMVIREALRDLFNVSHADITTVARRHASNRLGHDTTILQCLNTICSILNCTLTIECEPAEDRPLGIGRAYFMAKCTIIDHNENDLKFEVKSSSLASKAMAKDWVAQETLKNYFAIDPSSCVKTDAVSSQGPCALLHAMLNKQTKQKCKIAYEFKDNVPPVAGQATTTFYCECVIDETDRYIGVGRSKKLAKSEAAMQALKKLFKIDYDPAGNYPLALTSRAMTESKVSPLCRHIAEFCKREYHQMTEYYQIPPSNLFAAFLLVNAQEEKRVLAMGSSIQYIVEPDTLSGANGTSLLHLDAIILARRAMLKAFIHELSTVDSECSIFEKKEEGKAALKPNLRLVLYSNYSPPCIHAVDDAATKKLSYVTPTNLTCVPDDVLTYEQIKETKSLRVHCTADKLFKWNTLGIQGALLSNVLHPIFIDNIFFGSEAPVSDESLSYALQGRLGPNENEREIIVESMPVQMRMHMGISHLWHRGVDSVETLDYNTGRTSKGSPSRVCKAEIFEAYRKLNGVDQAVVNYAKAKEMASEYQYEKKVFYEKLEAAGLGKWQTKPAELVDSFTLAAFD	not soluble
DELLALASIYDGDEFRKAESVQGGETRIYLDLPQNFKIFVSGNSNECLQNSGFEYTICFLPPLVLNFELPPDYPSSSPPSFTLSGKWLSPTQLSALCKHLDNLWEEHRGSVVLFAWMQFLKEETLAYLRIRLLTKPERKLSWLLPPLSNN	not soluble
MFDSIRETIDYAVENNMSFADIMVKEEMELSGKSRDEVRAQMKQNLDVMRDAVIKGTTGDGVESVTGYTGHDAAKLRDYNETHHALSGYEMIDAVKGAIATNEVNAAMGIICATPTAGSSGTIPGALFKLEKTHDLTEEQMIDFLFTSALFGRVVANNASVAGATGGCQAEVGSASAMAAAAAVAIFGGSPEASGHAMALAISNLLGLVCDPVAGLVEIPCVMRNAIGSGNALISADLALAGIESRIPVDEVIEAMDKVGRNLPASLRETGLGGLAGTPTGEAIKRKIFGTAEDMVKNN	not soluble
